Measurements as given in US20250115663A1 (CELLDEX THERAPEUTICS, published 2025).

Key:
[1] = target: T1, kappa-sCD40-Flag fusion protein, full length ECD amino acid residues 1-173 (human, UniProt P25942 21-193); assay: ELISA, kappa-sCD40-Flag fusion captured on anti-Flag, anti-human IgG Fc-HRP
T1 construct: also called full length sCD40; not shown: N-terminal human kappa light chain; C-terminal Flag tag

[2] = target: T2, kappa-sCD40-Flag fusion protein, fragment amino acids 1-94 (human, UniProt P25942 21-114); assay: as above
T2 construct: also called sCD40aa 1-94; not shown: N-terminal human kappa light chain; C-terminal Flag tag

[3] = target: T3, kappa-sCD40-Flag fusion protein, fragment amino acids 36-130 (human, UniProt P25942 56-150); assay: as above
T3 construct: not shown: N-terminal human kappa light chain; C-terminal Flag tag

[4] = target: T4, kappa-sCD40-Flag fusion protein, fragment amino acids 84-173 (human, UniProt P25942 104-193); assay: as above
T4 construct: not shown: N-terminal human kappa light chain; C-terminal Flag tag

[5] = target: T5, kappa-sCD40(1-94)-Flag mutant fragment A (multiple mutations of residues 1-5) (human, UniProt P25942 26-114); assay: as above
T5 construct: The text says only multiple mutations of residues 1-5 (human to mouse differences); that mutant A carries exactly these is inferred; also called A (1-5); not shown: N-terminal human kappa light chain; C-terminal Flag tag

[6] = target: T6, kappa-sCD40(1-94)-Flag mutant fragment D (multiple mutations of residues 33-36) (human, UniProt P25942 21-114); assay: as above
T6 construct: The text says only multiple mutations of residues 33-36 (human to mouse differences); that mutant D carries exactly these is inferred; also called D (33-36); not shown: N-terminal human kappa light chain; C-terminal Flag tag
T6 chain: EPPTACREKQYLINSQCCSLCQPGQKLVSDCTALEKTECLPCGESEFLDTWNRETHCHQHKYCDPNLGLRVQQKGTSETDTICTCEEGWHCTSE

[7] = target: T7, kappa-sCD40(1-94)-Flag point mutant E1G (human, UniProt P25942 22-114); assay: as above
T7 construct: not shown: N-terminal human kappa light chain; C-terminal Flag tag

[8] = target: T8, kappa-sCD40(1-94)-Flag point mutant P3S (human, UniProt P25942 21-114); assay: as above
T8 construct: not shown: N-terminal human kappa light chain; C-terminal Flag tag
T8 chain: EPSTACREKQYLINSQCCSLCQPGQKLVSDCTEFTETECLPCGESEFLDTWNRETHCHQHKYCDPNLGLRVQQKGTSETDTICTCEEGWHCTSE

[9] = target: T9, kappa-sCD40(1-94)-Flag point mutant T4V (human, UniProt P25942 21-114); assay: as above
T9 construct: not shown: N-terminal human kappa light chain; C-terminal Flag tag
T9 chain: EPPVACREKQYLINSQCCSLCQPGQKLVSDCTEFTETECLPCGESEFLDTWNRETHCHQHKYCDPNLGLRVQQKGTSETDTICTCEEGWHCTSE

[10] = target: T10, kappa-sCD40(1-94)-Flag point mutant A5T (human, UniProt P25942 21-114); assay: as above
T10 construct: not shown: N-terminal human kappa light chain; C-terminal Flag tag
T10 chain: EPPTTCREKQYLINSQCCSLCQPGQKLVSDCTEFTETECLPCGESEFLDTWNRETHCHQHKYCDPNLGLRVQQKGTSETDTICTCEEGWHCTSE

[11] = target: T11, kappa-sCD40(1-94)-Flag point mutant E33A (human, UniProt P25942 21-114); assay: as above
T11 construct: not shown: N-terminal human kappa light chain; C-terminal Flag tag
T11 chain: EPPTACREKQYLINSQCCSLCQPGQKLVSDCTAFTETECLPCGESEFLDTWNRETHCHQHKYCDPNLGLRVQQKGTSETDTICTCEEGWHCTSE

[12] = target: T12, kappa-sCD40(1-94)-Flag point mutant F34L (human, UniProt P25942 21-114); assay: as above
T12 construct: not shown: N-terminal human kappa light chain; C-terminal Flag tag
T12 chain: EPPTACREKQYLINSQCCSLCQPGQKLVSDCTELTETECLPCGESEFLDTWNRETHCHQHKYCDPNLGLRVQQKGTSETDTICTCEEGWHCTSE

[13] = target: T13, kappa-sCD40(1-94)-Flag point mutant T35E (human, UniProt P25942 21-114); assay: as above
T13 construct: not shown: N-terminal human kappa light chain; C-terminal Flag tag
T13 chain: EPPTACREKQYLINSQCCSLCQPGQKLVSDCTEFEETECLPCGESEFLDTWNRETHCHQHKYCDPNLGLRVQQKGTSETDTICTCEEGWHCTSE

[14] = target: T14, kappa-sCD40(1-94)-Flag point mutant E36K (human, UniProt P25942 21-114); assay: as above
T14 construct: not shown: N-terminal human kappa light chain; C-terminal Flag tag
T14 chain: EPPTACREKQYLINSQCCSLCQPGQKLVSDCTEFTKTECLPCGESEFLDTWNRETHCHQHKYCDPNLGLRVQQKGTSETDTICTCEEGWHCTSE

[15] = target: T15, recombinant human CD40-Fc (human, UniProt P25942 21-193); assay: ELISA on coated recombinant human CD40-Fc, detection anti-human IgG F(ab')2-HRP, OD 450-650
T15 construct: also called soluble recombinant human CD40/Fc chimera from R&D Systems; not shown: The antibody Fc domain of the R&D Systems chimera and any linker to it
Procedure: Microtiter plates were coated with recombinant human CD40-Fc in PBS, and then blocked with 5% bovine serum albumin in PBS. […] The plates were washed with PBS/Tween and then incubated with a goat-anti-human IgG F(ab′)2-specific polyclonal reagent conjugated to horseradish peroxidase at 37° C. After washing, the plates were developed with HRP substrate, and analyzed at OD 450-650 using a microtiter plate reader.

T4 sequence (P25942 104-193): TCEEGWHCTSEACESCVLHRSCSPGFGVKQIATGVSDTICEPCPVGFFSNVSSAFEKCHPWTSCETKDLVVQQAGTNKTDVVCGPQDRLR
T3 sequence (P25942 56-150): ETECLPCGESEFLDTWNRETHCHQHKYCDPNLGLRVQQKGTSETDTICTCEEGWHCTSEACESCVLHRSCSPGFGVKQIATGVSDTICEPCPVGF
T15 sequence (P25942 21-193 limits assumed, form in doubt): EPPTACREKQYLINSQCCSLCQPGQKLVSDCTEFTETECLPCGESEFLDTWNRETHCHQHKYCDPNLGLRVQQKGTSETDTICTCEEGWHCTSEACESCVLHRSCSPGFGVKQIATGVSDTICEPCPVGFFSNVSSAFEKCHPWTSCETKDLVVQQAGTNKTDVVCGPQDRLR

Binder | OD [1] [OD 450-650] | OD [2] [OD 450-650] | OD [3] [OD 450-650] | OD [4] [OD 450-650] | OD [5] [OD 450-650] | OD [6] [OD 450-650] | OD [7] [OD 450-650] | OD [8] [OD 450-650] | OD [9] [OD 450-650] | OD [10] [OD 450-650] | OD [11] [OD 450-650] | OD [12] [OD 450-650] | OD [13] [OD 450-650] | OD [14] [OD 450-650] | EC50 (read off the curve) [15] [nM]
anti-CD40 human monoclonal antibody 3G5 (antibody, human IgG2, V domains shown, Human IgG2) VH: QVQLVESGGGVVQPGKSLRLSCAASGFTFSSNGIHWVRQAPGKGLEWVAVIWSDGSNKFYADSVKGRFTISRDNSKNTLYLQMNSLRAEDTAVYYCARASGSGSYYNFFDYWGQGTLVTVSS VL: EIVMTQSPATLSVSPGERATLSCRASQSVRSNLAWYQQKPGQAPRLLIYGASTRATGIPARFSGSGSGTEFTLTINSLQSEDFAVYYCQQHNKWITFGQGTRLEIK | 2.21 | 2.17 | 0.048 | 0.038 | 2.14 | 0.042 | 2.08 | 2.19 | 2.21 | 2.2 | 0.074 | 1.19 | 2.13 | 1.93 | ~0.4
anti-CD40 human monoclonal antibody 3C3 (antibody, human IgG2, kappa, V domains shown, Human IgG2, C-terminal lysine removed; also called anti-CD40 mAb 3C3; CD40 antibody 3C3) VH: QVQLVESGGGVVQPGRSLRLSCAGSGFIFSRYGMYWVRQAPGKGLEWVAVIWYDGSYKYYADSVKGRFTISRDNSKNTLYLQMNSLRAEDTAVYYCARESPWYYFDYWGQGTLVTVSS VL: DIQMTQSPSSLSASVGDRVTITCRASQGISNYLAWYQQKPGKVPKLLIYAASTLQSGVPSRFSGSGSGTDFTLTISSLQPEDVATYYCQKYKSAPFTFGPGTKVDIKR | 2.36 | 2.15 | 0.029 | 0.024 | 0.25 | 0.233 | 2.01 | 2.01 | 2.21 | 1.51 | 1.7 | 1.84 | 2.1 | 1.69 | ~0.4
